The record followed here is patent US20230183352A1 (published 2023).

B1: QP14381433 (antibody, V domains shown)
VH: EVQLVESGGGLVKPGGSLRLSCAASGFTFSNYAMSWVRQAPGKRLEWVASIISGGRTYYLDSEKGRFTISRDNAKNSLYLQMNSLRAEDTAVYYCTRIYYGNSFDYWGQGTLVTVSS
VL: DIVMTQSPDSLAVSLGERATINCKSSQSLLNSGNQKNYLTWYQQKPGQPPKLLIYWASTRESGVPDRFSGSGSGTDFTLTISSLQAEDVAVYYCQNDYSYPFTFGQGTKLEIK
B2: QP14511447 (antibody, V domains shown)
VH: EVQLVESGGGLVQPGGSLRLSCAASGFTFSSFGMHWVRQAPGKGLEWVAYISSGSNSIYYVDTVKGRFTISRDNAKNSLYLQMNSLRSEDTAVYYCARNAYYGNSFDYWGQGTLVTVSS
VL: DIVMTQSPDSLAVSLGERATISCKSSQSLLNSGNQKNYLTWYQQKPGQPPKLLIYWASTRESGVPDRFSGSGSGTDFTLTISSLQAEDVAVYFCQNNYYYPLTFGGGTKVEIK
B3: QP14631462 (antibody, V domains shown)
VH: QVQLVQSGAEVKKPGASVKVSCKASGYTFTSYIMHWVRQAPGQGLEWMGYINPYNDGTKYNEKFKGRVTMTRDTSTSTVYMELSSLRSEDTAVYYCARLGFTTRNAMDYWGQGTLVTVSS
VL: DIVMTQSPDSLAVSLGERATINCKSSQSLLNSGNQKNYLAWYQQKPGQPPKLLIYGASTRESGVPDRFTGSGSGTDFTLTISSVQAEDVAVYYCQNDHSYPFTFGQGTKLEIK
B4: QP14651461 (antibody, V domains shown)
VH: EVQLVQSGAEVKKPGASVKVSCKASGYTFTSYIMHWVRQAPGQGLEWIGYINPYNDGTKYNEKFKGRVTLTSDKSTSTVYMELSSLRSEDTAVYYCARLGFTTRNAMDYWGQGTLVTVSS
VL: DIVMTQSPDSLAVSLGERATINCKSSQSLLNSGNQKNYLAWYQQKPGQPPKLLIYGASTRESGVPDRFTGSGSGTDFTLTISSLQAEDVAVYYCQNDHSYPFTFGQGTKLEIK
B5: QP14501447 (antibody, V domains shown)
VH: EVQLVESGGGLVQPGGSLRLSCAASGFTFSSFGMHWVRQAPGKGLEWVAYISSGSNSIYYVDTVKGRFTISRDNAKNSLYLQMNSLRDEDTAVYYCARNAYYGNSFDYWGQGTLVTVSS
VL: DIVMTQSPDSLAVSLGERATISCKSSQSLLNSGNQKNYLTWYQQKPGQPPKLLIYWASTRESGVPDRFSGSGSGTDFTLTISSLQAEDVAVYFCQNNYYYPLTFGGGTKVEIK
B6: QP14491447 (antibody, V domains shown)
VH: EVQLVESGGGLVQPGGSLRLSCAASGFTFSSFGMHWVRQAPGKGLEWVSYISSGSNSIYYVDTVKGRFTISRDNAKNSLYLQMNSLRDEDTAVYYCARNAYYGNSFDYWGQGTLVTVSS
VL: DIVMTQSPDSLAVSLGERATISCKSSQSLLNSGNQKNYLTWYQQKPGQPPKLLIYWASTRESGVPDRFSGSGSGTDFTLTISSLQAEDVAVYFCQNNYYYPLTFGGGTKVEIK
B7: QP14661462 (antibody, V domains shown)
VH: EVQLVQSGAEVKKPGASVKVSCKASGYTFTSYIMHWVKQAPGQGLEWIGYINPYNDGTKYNEKFKGKATLTSDKSTSTVYMELSSLRSEDTAVYCCARLGFTTRNAMDYWGQGTLVTVSS
VL: DIVMTQSPDSLAVSLGERATINCKSSQSLLNSGNQKNYLAWYQQKPGQPPKLLIYGASTRESGVPDRFTGSGSGTDFTLTISSVQAEDVAVYYCQNDHSYPFTFGQGTKLEIK
B8: QP14511446 (antibody, V domains shown)
VH: EVQLVESGGGLVQPGGSLRLSCAASGFTFSSFGMHWVRQAPGKGLEWVAYISSGSNSIYYVDTVKGRFTISRDNAKNSLYLQMNSLRSEDTAVYYCARNAYYGNSFDYWGQGTLVTVSS
VL: DIVMTQSPDSLAVSLGERATINCKSSQSLLNSGNQKNYLTWYQQKPGQPPKLLIYWASTRESGVPDRFSGSGSGTDFTLTISSLQAEDVAVYYCQNNYYYPLTFGGGTKVEIK
B9: QP14431439 (antibody, V domains shown)
VH: QVQLVQSGAEVKKPGASVKVSCKASGYAFSSYWMNWVRQAPGQGLEWMGQIYPGNGDTTYNGKFKGRVTMTRDTSTSTVYMELSSLRSEDTAVYYCARFVKGNAMDYWGQGTLVTVSS
VL: DIVMTQSPDSLAVSLGERATINCKSSQSLLNSGNQKNYLTWYQQKPGQPPKLLIYWASTRESGVPDRFSGSGSGTDFTLTISSLQAEDVAVYYCQNAYSYPFTFGQGTKLEIK
B10: QP14431440 (antibody, V domains shown)
VH: QVQLVQSGAEVKKPGASVKVSCKASGYAFSSYWMNWVRQAPGQGLEWMGQIYPGNGDTTYNGKFKGRVTMTRDTSTSTVYMELSSLRSEDTAVYYCARFVKGNAMDYWGQGTLVTVSS
VL: DIVMTQSPDSLAVSLGERATISCKSSQSLLNSGNQKNYLTWYQQKPGQPPKLLIYWASTRESGVPDRFSGSGSGTDFTLTISSLQAEDVAVYYCQNAYSYPFTFGQGTKLEIK
B11: QP14661460 (antibody, V domains shown)
VH: EVQLVQSGAEVKKPGASVKVSCKASGYTFTSYIMHWVKQAPGQGLEWIGYINPYNDGTKYNEKFKGKATLTSDKSTSTVYMELSSLRSEDTAVYCCARLGFTTRNAMDYWGQGTLVTVSS
VL: DIVMTQSPDSLAVSLGERATINCKSSQSLLNSGNQKNYLAWYQQKPGQPPKLLIYGASTRESGVPDRFSGSGSGTDFTLTISSLQAEDVAVYYCQNDHSYPFTFGQGTKLEIK
B12: QP192193 (antibody, V domains shown)
VH: QVQLQQSGAELVRPGSSVKISCKASGYAFSSYWMNWVKQRPGQGLEWIGQIYPGNGDTTYNGKFKGQATLTADKSSSTVYMQLSSLTSEDSAVYFCARFVKGNAMDYWGQGTSVTVSS
VL: DIVMTQSPSSLTVTAGEKVTMSCKSSQSLLNSGNQKNYLTWYQQNPGQPPKMLIYWASTRESGVPDRFTGSGSGIDFSLTISSVQAEDLALYYCQNAYSYPFTFGSGTKLEIK
B13: QP14501448 (antibody, V domains shown)
VH: EVQLVESGGGLVQPGGSLRLSCAASGFTFSSFGMHWVRQAPGKGLEWVAYISSGSNSIYYVDTVKGRFTISRDNAKNSLYLQMNSLRDEDTAVYYCARNAYYGNSFDYWGQGTLVTVSS
VL: DIVMTQSPDSLAVSLGERATISCKSSQSLLNSGNQKNYLTWYQQKPGQPPKLLIYWASTRESGVPDRFTGSGSGTVFTLTISSLQAEDVAVYFCQNNYYYPLTFGGGTKVEIKR
B14: QP14491448 (antibody, V domains shown)
VH: EVQLVESGGGLVQPGGSLRLSCAASGFTFSSFGMHWVRQAPGKGLEWVSYISSGSNSIYYVDTVKGRFTISRDNAKNSLYLQMNSLRDEDTAVYYCARNAYYGNSFDYWGQGTLVTVSS
VL: DIVMTQSPDSLAVSLGERATISCKSSQSLLNSGNQKNYLTWYQQKPGQPPKLLIYWASTRESGVPDRFTGSGSGTVFTLTISSLQAEDVAVYFCQNNYYYPLTFGGGTKVEIKR
B15: QP14501446 (antibody, V domains shown)
VH: EVQLVESGGGLVQPGGSLRLSCAASGFTFSSFGMHWVRQAPGKGLEWVAYISSGSNSIYYVDTVKGRFTISRDNAKNSLYLQMNSLRDEDTAVYYCARNAYYGNSFDYWGQGTLVTVSS
VL: DIVMTQSPDSLAVSLGERATINCKSSQSLLNSGNQKNYLTWYQQKPGQPPKLLIYWASTRESGVPDRFSGSGSGTDFTLTISSLQAEDVAVYYCQNNYYYPLTFGGGTKVEIKR

In general, EC50 refers to the concentration needed to bring the measured effect to its halfway point.

One test concerns the target T1, Claudin 18.2 (CLDN18.2), expressed on CHOS-CLDN 18.2 / HEK293-CLDN 18.2 / HCC827-CLDN 18.2 cells (human, UniProt P56856 1-261). Kind of test: cell ELISA. For orientation: In an ELISA, binding on a coated surface is turned into a signal by an enzyme label.
With B1, the EC50 stood at 0.125 µg/mL.

The target in a further test is T1, Claudin 18.2 (CLDN18.2), expressed on …. In words: cell ELISA. The source holds these as a separate data set.
B2: the EC50 stood at 0.202 µg/mL.
Same read-out and setting: next, B3: 0.105 µg/mL; B4: 0.301 µg/mL; B5: 0.0926 µg/mL.
Same read-out and setting: the result for B6 reads 0.148 µg/mL.
Same read-out and setting: next, B7: 0.538 µg/mL; B8: 0.133 µg/mL.
For the molecule B9, the EC50 came out at 0.111 µg/mL.
On to B10, for which the response was half-maximal at 0.124 µg/mL (EC50).
Regarding B11, it took 0.105 µg/mL to reach a half-maximal effect (EC50).
B12 yielded an EC50 of 0.101 µg/mL.
In the case of B13, the EC50 turned out to be 0.115 µg/mL.
The molecule B14 registered an EC50 of 0.12 µg/mL.
B15 registered an EC50 of 0.109 µg/mL.

For a further test the target is unchanged. In words: cell ELISA. The source holds these as a separate data set.
As for B12, the EC50 amounted to 0.155 µg/mL.
